# According to the supplement of paper PMC10266784:
# B1: library; numbered along this chain (parent)
# chain: MAAAAAAAAEQQSSNGPVKKSMREKAVERRSVNKEHNSNFKAGYIPIDEDRLHKTGLRGRKGNLAICVIILLFILAVINLIITLVIWAVIRIGPNGCDSMEFHESGLLRFKQVSDMGVIHPLYKSTVGGRRNENLVITGNNQPIVFQQGTTKLSVENNKTSITSDIGMQFFDPRTQNILFSTDYETHEFHLPSGVKSLNVQKASTERITSNATSDLNIKVDGRAIVRGNEGVFIMGKTIEFHMGGNMELKAENSIILNGSVMVSTTRLPSSSSGDQLGSGDWVRYKLCMCADGTLFKVQVTSQNMGCQISDNPCGNTH
# Variants of: B1
# Test: SGCB cell-surface expression functional score (HA stain, bin4 vs bin1, normalised to synonymous) (log10 ratio); higher = more cell-surface SGCB (functional)
# Summary of the method: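 Sorting and sequencing yield the functional score, defined as the log ratio of a variant's highest-bin frequency to its lowest-bin frequency, with the median taken over codons and replicate transductions. The libraries, codon-saturation sets of HA-tagged, YFP-fused human beta-sarcoglycan, went into HEK293 cells stably carrying alpha-, gamma- and delta-sarcoglycan by duplicate lentiviral transduction at MOI <0.1. Cells were stained on ice with Alexa Fluor 647 anti-HA, fixed and split into four 5% intensity bins, and synonymous variants were scaled per section to mean 0, SD 0.5.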
row,Variant,SGCB cell-surface expression functional score (log10)
1,MAAAAAAAAEQQSSNGPVKKSMREKAVERRSVNKEHNSNFKAGYIPIDEDRLHKTGLRGRKGNLAICVIILLFILAVINLIITLVIWAVIRIGPNGCDSMEFHESGLLRFKQVSDMGVIHPLYKSTVGGRRNENLVITGNNQPIVFQQGTTKLSVENNKTSITSDIGMQFFDPRTQNILFSTDYETHEFHLPSGVKSLNVQKASTERITSNATSDLNIKVDGRAIVRGNEGVFIMGKTIEFHMGGNMELKAENSIILNMSVMVSTTRLPSSSSGDQLGSGDWVRYKLCMCADGTLFKVQVTSQNMGCQISDNPCGNTH [G259M],-1.05
2,MAAAAAAAAEQQSSNGPVKKSMREKAVERRSVNKEHNSNFKAGYIPIDEDRLHKTGLRGRKGNLAICVIILLFILAVINLIITLVIWAVIRIGPNGCDSMEFHESGLLRFKQVSDMGVIHPLYKSTVGGRRNENLVITGNNQPIVFQQGTTKLSVENNKTSITSDIGMQFFDPRTQNILFSTDYETHEFHLPSGVKSLNVQKASTERITSNATSDLNIKVDGRAIVRGNEGVFIMGKTIEFHMGGNMELKAENSIILNVSVMVSTTRLPSSSSGDQLGSGDWVRYKLCMCADGTLFKVQVTSQNMGCQISDNPCGNTH [G259V],0.07
3,MAAAAAAAAEQQSSNGPVKKSMREKAVERRSVNKEHNSNFKAGYIPIDEDRLHKTGLRGRKGNLAICVIILLFILAVINLIITLVIWAVIRIGPNGCDSMEFHESGLLRFKQVSDMGVIHPLYKSTVGGRRNENLVITGNNQPIVFQQGTTKLSVENNKTSITSDIGMQFFDPRTQNILFSTDYETHEFHLPSGVKSLNVQKASTERITSNATSDLNIKVDGRAIVRGNEGVFIMGKTIEFHMGGNMELKAENSIILNYSVMVSTTRLPSSSSGDQLGSGDWVRYKLCMCADGTLFKVQVTSQNMGCQISDNPCGNTH [G259Y],-1.22
4,MAAAAAAAAEQQSSNGPVKKSMREKAVERRSVNKEHNSNFKAGYIPIDEDRLHKTGLRGRKGNLAICVIILLFILAVINLIITLVIWAVIRIGPNGCDSMEFHESGLLRFKQVSDMGVIHPLYKSTVGGRRNENLVITGNNQPIVFQQGTTKLSVENNKTSITSDIGMQFFDPRTQNILFSTDYETHEFHLPSGVKSLNVQKASTERITSNATSDLNIKVDGRAIVRGNEGVFIMGKTIEFHMGGNMELKAENSIILNPSVMVSTTRLPSSSSGDQLGSGDWVRYKLCMCADGTLFKVQVTSQNMGCQISDNPCGNTH [G259P],-0.37
5,MAAAAAAAAEQQSSNGPVKKSMREKAVERRSVNKEHNSNFKAGYIPIDEDRLHKTGLRGRKGNLAICVIILLFILAVINLIITLVIWAVIRIGPNGCDSMEFHESGLLRFKQVSDMGVIHPLYKSTVGGRRNENLVITGNNQPIVFQQGTTKLSVENNKTSITSDIGMQFFDPRTQNILFSTDYETHEFHLPSGVKSLNVQKASTERITSNATSDLNIKVDGRAIVRGNEGVFIMGKTIEFHMGGNMELKAENSIILNSSVMVSTTRLPSSSSGDQLGSGDWVRYKLCMCADGTLFKVQVTSQNMGCQISDNPCGNTH [G259S],0.28
6,MAAAAAAAAEQQSSNGPVKKSMREKAVERRSVNKEHNSNFKAGYIPIDEDRLHKTGLRGRKGNLAICVIILLFILAVINLIITLVIWAVIRIGPNGCDSMEFHESGLLRFKQVSDMGVIHPLYKSTVGGRRNENLVITGNNQPIVFQQGTTKLSVENNKTSITSDIGMQFFDPRTQNILFSTDYETHEFHLPSGVKSLNVQKASTERITSNATSDLNIKVDGRAIVRGNEGVFIMGKTIEFHMGGNMELKAENSIILNNSVMVSTTRLPSSSSGDQLGSGDWVRYKLCMCADGTLFKVQVTSQNMGCQISDNPCGNTH [G259N],-0.51
7,MAAAAAAAAEQQSSNGPVKKSMREKAVERRSVNKEHNSNFKAGYIPIDEDRLHKTGLRGRKGNLAICVIILLFILAVINLIITLVIWAVIRIGPNGCDSMEFHESGLLRFKQVSDMGVIHPLYKSTVGGRRNENLVITGNNQPIVFQQGTTKLSVENNKTSITSDIGMQFFDPRTQNILFSTDYETHEFHLPSGVKSLNVQKASTERITSNATSDLNIKVDGRAIVRGNEGVFIMGKTIEFHMGGNMELKAENSIILNFSVMVSTTRLPSSSSGDQLGSGDWVRYKLCMCADGTLFKVQVTSQNMGCQISDNPCGNTH [G259F],-0.46
8,MAAAAAAAAEQQSSNGPVKKSMREKAVERRSVNKEHNSNFKAGYIPIDEDRLHKTGLRGRKGNLAICVIILLFILAVINLIITLVIWAVIRIGPNGCDSMEFHESGLLRFKQVSDMGVIHPLYKSTVGGRRNENLVITGNNQPIVFQQGTTKLSVENNKTSITSDIGMQFFDPRTQNILFSTDYETHEFHLPSGVKSLNVQKASTERITSNATSDLNIKVDGRAIVRGNEGVFIMGKTIEFHMGGNMELKAENSIILNRSVMVSTTRLPSSSSGDQLGSGDWVRYKLCMCADGTLFKVQVTSQNMGCQISDNPCGNTH [G259R],-0.34
9,MAAAAAAAAEQQSSNGPVKKSMREKAVERRSVNKEHNSNFKAGYIPIDEDRLHKTGLRGRKGNLAICVIILLFILAVINLIITLVIWAVIRIGPNGCDSMEFHESGLLRFKQVSDMGVIHPLYKSTVGGRRNENLVITGNNQPIVFQQGTTKLSVENNKTSITSDIGMQFFDPRTQNILFSTDYETHEFHLPSGVKSLNVQKASTERITSNATSDLNIKVDGRAIVRGNEGVFIMGKTIEFHMGGNMELKAENSIILNESVMVSTTRLPSSSSGDQLGSGDWVRYKLCMCADGTLFKVQVTSQNMGCQISDNPCGNTH [G259E],-1.29
10,MAAAAAAAAEQQSSNGPVKKSMREKAVERRSVNKEHNSNFKAGYIPIDEDRLHKTGLRGRKGNLAICVIILLFILAVINLIITLVIWAVIRIGPNGCDSMEFHESGLLRFKQVSDMGVIHPLYKSTVGGRRNENLVITGNNQPIVFQQGTTKLSVENNKTSITSDIGMQFFDPRTQNILFSTDYETHEFHLPSGVKSLNVQKASTERITSNATSDLNIKVDGRAIVRGNEGVFIMGKTIEFHMGGNMELKAENSIILNLSVMVSTTRLPSSSSGDQLGSGDWVRYKLCMCADGTLFKVQVTSQNMGCQISDNPCGNTH [G259L],-0.06
11,MAAAAAAAAEQQSSNGPVKKSMREKAVERRSVNKEHNSNFKAGYIPIDEDRLHKTGLRGRKGNLAICVIILLFILAVINLIITLVIWAVIRIGPNGCDSMEFHESGLLRFKQVSDMGVIHPLYKSTVGGRRNENLVITGNNQPIVFQQGTTKLSVENNKTSITSDIGMQFFDPRTQNILFSTDYETHEFHLPSGVKSLNVQKASTERITSNATSDLNIKVDGRAIVRGNEGVFIMGKTIEFHMGGNMELKAENSIILNISVMVSTTRLPSSSSGDQLGSGDWVRYKLCMCADGTLFKVQVTSQNMGCQISDNPCGNTH [G259I],0.63
12,MAAAAAAAAEQQSSNGPVKKSMREKAVERRSVNKEHNSNFKAGYIPIDEDRLHKTGLRGRKGNLAICVIILLFILAVINLIITLVIWAVIRIGPNGCDSMEFHESGLLRFKQVSDMGVIHPLYKSTVGGRRNENLVITGNNQPIVFQQGTTKLSVENNKTSITSDIGMQFFDPRTQNILFSTDYETHEFHLPSGVKSLNVQKASTERITSNATSDLNIKVDGRAIVRGNEGVFIMGKTIEFHMGGNMELKAENSIILNASVMVSTTRLPSSSSGDQLGSGDWVRYKLCMCADGTLFKVQVTSQNMGCQISDNPCGNTH [G259A],0.9
13,MAAAAAAAAEQQSSNGPVKKSMREKAVERRSVNKEHNSNFKAGYIPIDEDRLHKTGLRGRKGNLAICVIILLFILAVINLIITLVIWAVIRIGPNGCDSMEFHESGLLRFKQVSDMGVIHPLYKSTVGGRRNENLVITGNNQPIVFQQGTTKLSVENNKTSITSDIGMQFFDPRTQNILFSTDYETHEFHLPSGVKSLNVQKASTERITSNATSDLNIKVDGRAIVRGNEGVFIMGKTIEFHMGGNMELKAENSIILNHSVMVSTTRLPSSSSGDQLGSGDWVRYKLCMCADGTLFKVQVTSQNMGCQISDNPCGNTH [G259H],0.33
14,MAAAAAAAAEQQSSNGPVKKSMREKAVERRSVNKEHNSNFKAGYIPIDEDRLHKTGLRGRKGNLAICVIILLFILAVINLIITLVIWAVIRIGPNGCDSMEFHESGLLRFKQVSDMGVIHPLYKSTVGGRRNENLVITGNNQPIVFQQGTTKLSVENNKTSITSDIGMQFFDPRTQNILFSTDYETHEFHLPSGVKSLNVQKASTERITSNATSDLNIKVDGRAIVRGNEGVFIMGKTIEFHMGGNMELKAENSIILNDSVMVSTTRLPSSSSGDQLGSGDWVRYKLCMCADGTLFKVQVTSQNMGCQISDNPCGNTH [G259D],-1.69
15,MAAAAAAAAEQQSSNGPVKKSMREKAVERRSVNKEHNSNFKAGYIPIDEDRLHKTGLRGRKGNLAICVIILLFILAVINLIITLVIWAVIRIGPNGCDSMEFHESGLLRFKQVSDMGVIHPLYKSTVGGRRNENLVITGNNQPIVFQQGTTKLSVENNKTSITSDIGMQFFDPRTQNILFSTDYETHEFHLPSGVKSLNVQKASTERITSNATSDLNIKVDGRAIVRGNEGVFIMGKTIEFHMGGNMELKAENSIILNCSVMVSTTRLPSSSSGDQLGSGDWVRYKLCMCADGTLFKVQVTSQNMGCQISDNPCGNTH [G259C],-0.44
16,MAAAAAAAAEQQSSNGPVKKSMREKAVERRSVNKEHNSNFKAGYIPIDEDRLHKTGLRGRKGNLAICVIILLFILAVINLIITLVIWAVIRIGPNGCDSMEFHESGLLRFKQVSDMGVIHPLYKSTVGGRRNENLVITGNNQPIVFQQGTTKLSVENNKTSITSDIGMQFFDPRTQNILFSTDYETHEFHLPSGVKSLNVQKASTERITSNATSDLNIKVDGRAIVRGNEGVFIMGKTIEFHMGGNMELKAENSIILNTSVMVSTTRLPSSSSGDQLGSGDWVRYKLCMCADGTLFKVQVTSQNMGCQISDNPCGNTH [G259T],0.55
17,MAAAAAAAAEQQSSNGPVKKSMREKAVERRSVNKEHNSNFKAGYIPIDEDRLHKTGLRGRKGNLAICVIILLFILAVINLIITLVIWAVIRIGPNGCDSMEFHESGLLRFKQVSDMGVIHPLYKSTVGGRRNENLVITGNNQPIVFQQGTTKLSVENNKTSITSDIGMQFFDPRTQNILFSTDYETHEFHLPSGVKSLNVQKASTERITSNATSDLNIKVDGRAIVRGNEGVFIMGKTIEFHMGGNMELKAENSIILNWSVMVSTTRLPSSSSGDQLGSGDWVRYKLCMCADGTLFKVQVTSQNMGCQISDNPCGNTH [G259W],-1.53
18,MAAAAAAAAEQQSSNGPVKKSMREKAVERRSVNKEHNSNFKAGYIPIDEDRLHKTGLRGRKGNLAICVIILLFILAVINLIITLVIWAVIRIGPNGCDSMEFHESGLLRFKQVSDMGVIHPLYKSTVGGRRNENLVITGNNQPIVFQQGTTKLSVENNKTSITSDIGMQFFDPRTQNILFSTDYETHEFHLPSGVKSLNVQKASTERITSNATSDLNIKVDGRAIVRGNEGVFIMGKTIEFHMGGNMELKAENSIILNKSVMVSTTRLPSSSSGDQLGSGDWVRYKLCMCADGTLFKVQVTSQNMGCQISDNPCGNTH [G259K],-1.06
19,MAAAAAAAAEQQSSNGPVKKSMREKAVERRSVNKEHNSNFKAGYIPIDEDRLHKTGLRGRKGNLAICVIILLFILAVINLIITLVIWAVIRIGPNGCDSMEFHESGLLRFKQVSDMGVIHPLYKSTVGGRRNENLVITGNNQPIVFQQGTTKLSVENNKTSITSDIGMQFFDPRTQNILFSTDYETHEFHLPSGVKSLNVQKASTERITSNATSDLNIKVDGRAIVRGNEGVFIMGKTIEFHMGGNMELKAENSIILNQSVMVSTTRLPSSSSGDQLGSGDWVRYKLCMCADGTLFKVQVTSQNMGCQISDNPCGNTH [G259Q],0.7
